Source: PMC9873692 (2023)

B1: P2 domain of the histidine kinase CheA (domain or fragment)
chain: GFKTFYIKVILKEGTQLKSARIYLVFHKLEELKCEVVRTIPSVEEIEEEKFENEVELFVISPVDLEKLSEALSSIADIERVIIKEV
modifications: biotin (in vivo biotinylation, AviTag)
B2: CheY protein from Thermotoga maritima (natural protein)
chain: MGKRVLIVDDAAFMRMMLKDIITKAGYEVAGEATNGREAVEKYKELKPDIVTMDITMPEMNGIDAIKEIMKIDPNAKIIVCSAMGQQAMVIEAIKAGAKDFIVKPFQPSRVVEALNKVSK

Key:
Assay in all cases: ITC
Cheytin 1 = molecular target: Cheytin 1
Cheytin 4 = molecular target: Cheytin 4
Cheytin 2 = molecular target: Cheytin 2
Cheytin 3 = molecular target: Cheytin 3
[1] = molecular target: B1

| Binder | Kd (Cheytin 1) | Kd (Cheytin 4) | Kd (Cheytin 2) | Kd (Cheytin 3) | Kd [1] |
| --- | --- | --- | --- | --- | --- |
| B1 | 220 nM | 490 nM | 110 nM | 660 nM |  |
| B2 |  |  |  |  | 150 nM |
